This assay addresses VirB4-like TraB ATPase of the pKM101-encoded type IV secretion system (plasmid pKM101 (carried in E. coli)). As to the kind of experiment: cryo-EM structure; in situ cryo-electron tomography with subtomogram averaging of T4SS(pKM101) machines in E. coli UU2834 minicells; 6-fold symmetry seen in class averages and then imposed for the IMC; wild type compared with ΔtraB mutant machines.

For the substance “VirB4-like TraB ATPase of the pKM101-encoded type IV secretion system (enzyme)”, the stoichiometry N (usually a count of units in the complex or per binding partner) was determined as 12.

The values are drawn from article PMC8510550.
